# B1: Transmembrane protease serine 6 (Homo sapiens), Q8IU80 (parent)
# chain: MLLLFHSKRMPVAEAPQVAGGQGDGGDGEEAEPEGMFKACEDSKRKARGYLRLVPLFVLLALLVLASAGVLLWYFLGYKAEVMVSQVYSGSLRVLNRHFSQDLTRRESSAFRSETAKAQKMLKELITSTRLGTYYNSSSVYSFGEGPLTCFFWFILQIPEHRRLMLSPEVVQALLVEELLSTVNSSAAVPYRAEYEVDPEGLVILEASVKDIAALNSTLGCYRYSYVGQGQVLRLKGPDHLASSCLWHLQGPKDLMLKLRLEWTLAECRDRLAMYDVAGPLEKRLITSVYGCSRQEPVVEVLASGAIMAVVWKKGLHSYYDPFVLSVQPVVFQACEVNLTLDNRLDSQGVLSTPYFPSYYSPQTHCSWHLTVPSLDYGLALWFDAYALRRQKYDLPCTQGQWTIQNRRLCGLRILQPYAERIPVVATAGITINFTSQISLTGPGVRVHYGLYNQSDPCPGEFLCSVNGLCVPACDGVKDCPNGLDERNCVCRATFQCKEDSTCISLPKVCDGQPDCLNGSDEEQCQEGVPCGTFTFQCEDRSCVKKPNPQCDGRPDCRDGSDEEHCDCGLQGPSSRIVGGAVSSEGEWPWQASLQVRGRHICGGALIADRWVITAAHCFQEDSMASTVLWTVFLGKVWQNSRWPGEVSFKVSRLLLHPYHEEDSHDYDVALLQLDHPVVRSAAVRPVCLPARSHFFEPGLHCWITGWGALREGGPISNALQKVDVQLIPQDLCSEVYRYQVTPRMLCAGYRKGKKDACQGDSGGPLVCKALSGRWFLAGLVSWGLGCGRPNYFGVYTRITGVISWIQQVVT
# partner: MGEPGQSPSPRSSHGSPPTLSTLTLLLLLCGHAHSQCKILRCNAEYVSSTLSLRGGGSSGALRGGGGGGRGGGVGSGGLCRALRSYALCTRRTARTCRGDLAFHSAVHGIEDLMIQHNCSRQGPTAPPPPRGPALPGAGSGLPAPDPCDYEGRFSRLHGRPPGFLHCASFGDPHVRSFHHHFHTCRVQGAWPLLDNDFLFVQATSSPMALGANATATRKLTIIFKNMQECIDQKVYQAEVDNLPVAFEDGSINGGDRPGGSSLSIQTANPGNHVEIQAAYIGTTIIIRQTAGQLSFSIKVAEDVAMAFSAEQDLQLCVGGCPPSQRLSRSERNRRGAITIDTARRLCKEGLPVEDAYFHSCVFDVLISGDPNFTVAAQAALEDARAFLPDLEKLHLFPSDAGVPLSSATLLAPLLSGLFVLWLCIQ
# Variants of: B1
# Details: with rgmc_human HJV
row,Variant,effect of a mutation on the interaction
1,Y141C,with no effect

# Reference: IntAct's records for PubMed 20704562
